Experimental findings from patent US20130064833A1 are described below.

This test addresses hepatocyte growth factor receptor (HGFR) (UniProt P08581). Description: cell-based or functional assay.
Chain of UniProt P08581 (P08581 25-1390 limits assumed): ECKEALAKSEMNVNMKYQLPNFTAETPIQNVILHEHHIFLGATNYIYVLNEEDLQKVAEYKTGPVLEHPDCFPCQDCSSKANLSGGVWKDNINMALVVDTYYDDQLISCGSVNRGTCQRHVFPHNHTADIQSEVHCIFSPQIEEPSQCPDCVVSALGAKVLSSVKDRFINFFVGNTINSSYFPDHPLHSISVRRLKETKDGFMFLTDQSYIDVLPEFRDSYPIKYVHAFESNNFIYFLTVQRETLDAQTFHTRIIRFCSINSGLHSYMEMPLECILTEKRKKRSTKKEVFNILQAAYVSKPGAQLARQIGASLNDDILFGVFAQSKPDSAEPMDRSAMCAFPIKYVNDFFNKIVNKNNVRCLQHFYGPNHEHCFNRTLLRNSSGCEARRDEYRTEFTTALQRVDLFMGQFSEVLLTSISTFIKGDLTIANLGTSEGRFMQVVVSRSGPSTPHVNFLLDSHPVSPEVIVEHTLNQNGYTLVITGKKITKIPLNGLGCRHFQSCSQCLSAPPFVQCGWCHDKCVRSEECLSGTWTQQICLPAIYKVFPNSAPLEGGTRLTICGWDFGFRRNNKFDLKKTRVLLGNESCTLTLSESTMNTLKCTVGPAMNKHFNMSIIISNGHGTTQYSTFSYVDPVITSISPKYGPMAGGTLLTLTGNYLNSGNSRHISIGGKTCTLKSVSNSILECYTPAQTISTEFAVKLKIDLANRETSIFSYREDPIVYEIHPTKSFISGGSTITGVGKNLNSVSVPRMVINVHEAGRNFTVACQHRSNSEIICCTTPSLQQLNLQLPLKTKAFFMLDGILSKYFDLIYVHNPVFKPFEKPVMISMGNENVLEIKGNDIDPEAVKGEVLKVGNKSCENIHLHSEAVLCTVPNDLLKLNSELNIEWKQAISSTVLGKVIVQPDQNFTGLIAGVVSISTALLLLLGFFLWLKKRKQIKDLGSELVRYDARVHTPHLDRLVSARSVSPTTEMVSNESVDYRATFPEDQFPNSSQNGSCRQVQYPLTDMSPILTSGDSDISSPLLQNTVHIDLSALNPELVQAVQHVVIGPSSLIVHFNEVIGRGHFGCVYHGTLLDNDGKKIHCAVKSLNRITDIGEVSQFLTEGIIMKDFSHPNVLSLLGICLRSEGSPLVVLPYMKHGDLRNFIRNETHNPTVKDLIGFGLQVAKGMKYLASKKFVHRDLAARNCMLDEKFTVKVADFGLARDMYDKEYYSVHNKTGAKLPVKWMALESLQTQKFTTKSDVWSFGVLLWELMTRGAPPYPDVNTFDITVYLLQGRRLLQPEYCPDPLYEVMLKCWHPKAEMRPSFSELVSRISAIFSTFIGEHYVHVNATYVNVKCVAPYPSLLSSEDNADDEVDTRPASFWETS

The substance hepatocyte growth factor (HGF) (ligand) yielded an LEC proliferation, minimal effective concentration of 1 ng/mL.
